In patent US20160271248A1, “CXCR4 UP- AND DOWN-REGULATION FOR TREATMENT OF DISEASES OR DISORDERS” (priority 2013, published 2016):

Tested on: neuronal FHC
Assay: gp120-mediated upregulation of neuronal FHC in bilaminar co-cultures with neutralizing antibodies or IL-1ra
Type: cell-based, rat
Details: IL-1β antibody 50 μg/mL, IL-1ra 1 μg/mL
Protocol: FIG. 13, comprising FIGS. 13A-13C, is a set of bar graphs and images illustrating that the presence of an IL-1β neutralizing antibody or IL-1 receptor antagonist abrogated gp120-mediated increases in FHC. Rat neurons cultured with a feeder layer of glia (8 DIV) were treated with either gp120IIIB (200 pM) or gp120BaL (200 pM) in the presence or absence of TNF-α antibody (40 μg/mL), IL-1β antibody (50 μg/mL) or IL-1ra (1 μg/mL). The presence of a TNF-α neutralizing antibody had no effect on the ability of gp120 to upregulate neuronal FHC. Neutralization or antagonism of IL-1β mitigated increases in neuronal FHC caused by gp120 in bilaminar cultures.
Rat cortical neurons were cultured in serum-free media in the presence of a glial feeder layer (Shimizu, et al., 2011, J. Vis. Exp. 57). This culture system largely preserves the in vivo environment, due to the presence of glia; however, it still enables direct investigation of neurons that can be separated by the glia before experiments. Selected studies were also performed in neurons grown in the absence of glia for the entire culture period, as indicated (Sengupta, et al., 2009, J. Neurosci. 29(8):2534-44). All experiments were conducted between 8-13 days in vitro (DIV).
Total protein extracts were obtained using standard protocols. […]

B1: IL-1ra: IL-1 receptor antagonist, an endogenous inhibitor of IL-1 signaling (protein, UniProt P25086 27-178, looked up)
Interleukin-1 receptor …: HPAGKRPCKMQAFRIWDTNQKTFYLRNNQLIAGYLQGPNTKLEEKIDMVPIDFRNVFLGIHGGKLCLSCVKSGDDTKLQLEEVNITDLNKNKEEDKRFTFIRSETGPTTSFESLACPGWFLCTTLEADHPVSLTNTPKEPCTVTKFYFQEDQ
gp120IIIB or gp120BaL 200 pM, TNF-α antibody 40 μg/mL
  effect on gp120-induced upregulation of neuronal FHC: completely blocked
Without gp120
  FHC protein levels, treatment alone: no significant effect on FHC protein levels
